Target: synthetic peptide on H-2Kb (mouse)
Assay: data from [108]; method not given; soluble, other

Substance: YAe62
- Kd: 15 µM
